In PMC10090177:

Experiments:
Test in all cases: cryo-EM structure; purified SGIV virions; icosahedral capsid, block-based reconstruction at 3.5 Å; atomic model of one asymmetric unit
[1] = target: Singapore grouper iridovirus penton protein VP14 (Singapore grouper iridovirus (SGIV))
[2] = target: Singapore grouper iridovirus major capsid protein VP72 (Singapore grouper iridovirus (SGIV))
[3] = target: Singapore grouper iridovirus zip protein VP38 (P1) (Singapore grouper iridovirus (SGIV))

With “Singapore grouper iridovirus penton protein VP14 (natural protein)” the stoichiometry N [1] was 5.

“Singapore grouper iridovirus major capsid protein VP72 (natural protein)” gave a stoichiometry N [2] of 3.

In the case of “Singapore grouper iridovirus zip protein VP38 (P1) (natural protein)”, the stoichiometry N [3] is reported as 2.
